Test results as given in patent publication US20260103496A1, “NEUREGULIN AND USE THEREOF” (ZENSUN (SHANGHAI) SCIENCE & TECHNOLOGY, CO., LTD., priority 2022, published 2026).
Values joined by “and” are separate entries in the source; they are usually repeats but may differ in a detail not shown here. Equal entries are not always repeated.

Test system: subjects with chronic systolic heart failure
Test: Phase III clinical trial of recombinant human neuregulin for injection on cardiac function (LVESVI/LVEDVI), with enriched-subgroup analyses
Type: in vivo
Details: for average improvement in LVEDVI from baseline, enriched population compared with overall (general) population / average improvement in LVESVI from baseline, enriched population compared with overall (general) population: Day 30 after the administration
Description: Example 1: A Multi-Center, Randomized, Double-Blind, Placebo-Controlled and Standard Treatment-Based Phase III Clinical Trial to Evaluate the Effect of Recombinant Human Neuregulin for Injection on Cardiac Function of Subjects with Chronic Systolic Heart Failure
In this example, a multi-center, randomized, double-blind, placebo-controlled study was conducted based on standard treatment to evaluate the effects of recombinant human neuregulin for injection on the cardiac function of male patients with NT-proBNP ≤1700 pg/ml and female patients with NT-proBNP ≤4000 pg/ml, and to confirm its efficacy and safety.
A multicenter, randomized, double-blind, placebo-controlled study was conducted based on standard treatment.
Experimental group: recombinant human neuregulin for injection+standard basic treatment drugs (β receptor blocker, ACEI/ARB/ARNI, aldosterone receptor antagonist, etc.).
• 2.1 Age is 18-75 years old, regardless of gender; • 2.2 heart failure has been definitely diagnosed for 3 months or more, and the condition is stable at present, with NYHA II-III grade and left ventricular ejection fraction (LVEF)≤40%; • 2.3 male Nt-proBNP ≤1700 pg/ml, female Nt-proBNP ≤4000 pg/ml; • 2.4 After receiving standard basic treatment drugs for heart failure for 3 months, the target dose or maximum tolerated dose has been reached for more than 1 month, or the dose has not been changed within 1 month; • 2.5 Understand and sign the informed consent form.
Specification: Neucardin, 61 amino acids constitute EGF-like functional domain of Neuegulin-1β2 isomer, with molecular weight of 7054 Dal (1 μg=0.14 nmol); 250 μg/piece. • Dosage Form: Powder Injection • Administration Route: Intravenous Drip • Appearance: freeze-dried block or powder.
5. Data Collection: Evaluating the Effectiveness and Safety During the Screening Period, 30 Days and 90 Days after Administration.
This example was carried out in many clinical research centers in China at the same time. 154 cases were actually enrolled, 78 cases in the Neuregulin experimental group and 76 cases in the placebo group. A total of 147 cases (73 cases in the experimental group and 74 cases in the placebo group) finally achieved the main end points.
Through statistical analysis of the experimental results from Example 1, the inventors investigated, in this Example, the response rate of Neuregulin in improving LVESVI (by more than 13 mL/m^2) in an enriched population. The enriched population refers to patients with a baseline LVESVI ≥135 mL/m^2, accounting for approximately 41% of the total studied population.
Through statistical analysis of the results from Example 1, the inventors investigated, in this Example, the response rate of Neuregulin in improving both LVESVI and LVEDVI (both exceeding 20 mL/m^2) in individual patients of the enriched population.

[1] = 30 days after administration, P<0.05 vs placebo
[2] = baseline LVESVI ≥135 mL/m^2, listed as neuregulin
[3] = enriched population, baseline LVESVI ≥135 mL/m^2
[4] = individual subject, Day 30 vs baseline, FAS

B1: Neuregulin: 61 amino acids constitute EGF-like functional domain of Neuegulin-1β2 isomer, molecular weight 7054 Dal; SEQ ID NO: 1 (protein)
chain: SHLVKCAEKEKTFCVNGGECFMVKDLSNPSRYLCKCPNEFTGDRCQNYVMASFYKAEELYQ
patients with LVESVI reduction (30-day data, compared with baseline): 63%
ΔLVESVI (30 D): −5.62 ± 18.99 ml/m^2
ΔLVESVI (90 D, P=0.0128): −5.23 ± 17.12 ml/m^2
improvement rate: LVESVI decreased by ≥5 ml/m^2 compared with the baseline (30 days after administration): 45.2%
improvement rate: LVESVI decreased by ≥10 ml/m^2 compared with the baseline (30 days after administration): 34.2%
improvement rate: LVESVI decreased by ≥15 ml/m^2 compared with the baseline (30 days after administration): 23.3%
improvement rate: LVESVI decreased by ≥30 ml/m^2 compared with the baseline (30 days after administration): 8.2%
improvement rate: LVESVI decreased by ≥35 ml/m^2 compared with the baseline (30 days after administration): 5.5%
improvement rate: LVESVI decreased by ≥40 ml/m^2 compared with the baseline (30 days after administration): 2.7%
improvement rate: LVESVI decreased by ≥20 ml/m^2 compared with the baseline [1]: 17.8%
improvement rate: LVESVI decreased by ≥25 ml/m^2 compared with the baseline [1]: 15.1%
Increase in LVEDVI at Day 30 compared with the baseline was more than or equal to 5 ml/m^2, n/N(%) (Day 30, FAS): 19/73(26.0) %
Increase in LVEDVI at Day 30 compared with the baseline was more than or equal to 10 ml/m^2, n/N(%) (Day 30, FAS): 14/73(19.2) %
Increase in LVEDVI at Day 30 compared with the baseline was more than or equal to 15 ml/m^2, n/N(%) (Day 30, FAS): 9/73(12.3) %
Increase in LVEDVI at Day 30 compared with the baseline was more than or equal to 20 ml/m^2, n/N(%) (Day 30, FAS): 3/73(4.1) %
Increase in LVEDVI at Day 30 compared with the baseline was more than or equal to 25 ml/m^2, n/N(%) (Day 30, FAS): 3/73(4.1) %
Increase in LVEDVI at Day 30 compared with the baseline was more than or equal to 30 ml/m^2, n/N(%) (Day 30, FAS): 1/73(1.4) %
Increase in LVESVI at Day 30 compared with the baseline was more than or equal to 5 ml/m^2, n/N(%) (Day 30, FAS): 15/73(20.5) %
Increase in LVESVI at Day 30 compared with the baseline was more than or equal to 10 ml/m^2, n/N(%) (Day 30, FAS): 10/73(13.7) %
Increase in LVESVI at Day 30 compared with the baseline was more than or equal to 15 ml/m^2, n/N(%) (Day 30, FAS): 5/73(6.8) %
Increase in LVESVI at Day 30 compared with the baseline was more than or equal to 20 ml/m^2, n/N(%) (Day 30, FAS): 3/73(4.1) %
Increase in LVESVI at Day 30 compared with the baseline was more than or equal to 25 ml/m^2, n/N(%) (Day 30, FAS): 1/73(1.4) %
Increase in LVESVI at Day 30 compared with the baseline was more than or equal to 30 ml/m^2, n/N(%) (Day 30, FAS): 1/73(1.4) %
Reduction in LVEDVI at Day 30 compared with the baseline was more than or equal to 5 ml/m^2, n/N(%) (Day 30, FAS): 43.8% and 32/73(43.8) %
Reduction in LVEDVI at Day 30 compared with the baseline was more than or equal to 10 ml/m^2, n/N(%) (Day 30, FAS): 30.1% and 22/73(30.1) %
Reduction in LVEDVI at Day 30 compared with the baseline was more than or equal to 15 ml/m^2, n/N(%) (Day 30, FAS): 21.9% and 16/73(21.9) %
Reduction in LVEDVI at Day 30 compared with the baseline was more than or equal to 20 ml/m^2, n/N(%) (Day 30, FAS): 17.8% and 13/73(17.8) %
Reduction in LVEDVI at Day 30 compared with the baseline was more than or equal to 25 ml/m^2, n/N(%) (Day 30, FAS): 16.4% and 12/73(16.4) %
Reduction in LVEDVI at Day 30 compared with the baseline was more than or equal to 35 ml/m^2, n/N(%) (Day 30, FAS): 6.8% and 5/73(6.8) %
Reduction in LVEDVI at Day 30 compared with the baseline was more than or equal to 40 ml/m^2, n/N(%) (Day 30, FAS): 5.5% and 4/73(5.5) %
Reduction in LVEDVI at Day 30 compared with the baseline was more than or equal to 30 ml/m^2, n/N(%) (Day 30, FAS, P value of 0.046 vs placebo): 13.7% and 10/73(13.7) %
LVESVI improved compared with that before administration (Day 30 after administration, P=0.0137): 5.62 ml/m^2
average improvement in LVEDVI from baseline, enriched population compared with overall (general) population (baseline LVESVI ≥135 mL/m^2): greater average improvement in LVEDVI
average improvement in LVESVI from baseline, enriched population compared with overall (general) population (baseline LVESVI ≥135 mL/m^2): greater average improvement in LVESVI
average improvement in LVEDVI from baseline, enriched population compared with overall (general) population [2]: better average improvements in LVESVI or LVEDVI than the neuregulin treatment group in the general population
average improvement in LVESVI from baseline, enriched population compared with overall (general) population [2]: better average improvements in LVESVI or LVEDVI than the neuregulin treatment group in the general population
LVESVI and LVEDVI: Simultaneous increase by more than or equal to 5 ml/m^2, n/N(%) (Day 30 vs baseline, FAS): 13/73(17.8) %
LVESVI and LVEDVI: Simultaneous increase by more than or equal to 10 ml/m^2, n/N(%) (Day 30 vs baseline, FAS): 9/73(12.3) %
LVESVI and LVEDVI: Simultaneous increase by more than or equal to 15 ml/m^2, n/N(%) (Day 30 vs baseline, FAS): 3/73(4.1) %
LVESVI and LVEDVI: Simultaneous increase by more than or equal to 20 ml/m^2, n/N(%) (Day 30 vs baseline, FAS): 2/73(2.7) %
LVESVI and LVEDVI: Simultaneous increase by more than or equal to 25 ml/m^2, n/N(%) (Day 30 vs baseline, FAS): 1/73(1.4) %
LVESVI and LVEDVI: Simultaneous increase by more than or equal to 30 ml/m^2, n/N(%) (Day 30 vs baseline, FAS): 1/73(1.4) %
persistence of the LVESVI improvement effect (after 10-day administration, P=0.0128 at Day 90): could be maintained until Day 90 after the administration
response rate for a substantial improvement in LVESVI (a reduction of more than 13 mL/m^2) [3]: 50%
response rate for both LVESVI and LVEDVI decreased by more than 20 mL/m^2, compared with placebo group [3]: significantly higher than that in the placebo group
response rate for both LVESVI and LVEDVI reduced by ≥20 mL/m^2, enriched population compared with overall (general) population [3]: higher than that in the overall population
response rate for simultaneous improvements in both LVESVI and LVEDVI greater than 20 mL/m^2 (enriched population, baseline LVESVI ≥135 mL/m^2, individual subjects): 26.5%
response rate for both LVESVI and LVEDVI reduced by ≥20 mL/m^2, enriched population compared with overall (general) population (enriched population, baseline LVESVI ≥135 mL/m^2, listed as neuregulin): better response rate
LVESVI and LVEDVI: Simultaneous reduction by more than or equal to 5 ml/m^2, n/N(%) [4]: 37.0% and 27/73(37.0) %
LVESVI and LVEDVI: Simultaneous reduction by more than or equal to 10 ml/m^2, n/N(%) [4]: 23.3% and 17/73(23.3) %
LVESVI and LVEDVI: Simultaneous reduction by more than or equal to 15 ml/m^2, n/N(%) [4]: 19.2% and 14/73(19.2) %
LVESVI and LVEDVI: Simultaneous reduction by more than or equal to 25 ml/m^2, n/N(%) [4]: 12.3% and 9/73(12.3) %
LVESVI and LVEDVI: Simultaneous reduction by more than or equal to 30 ml/m^2, n/N(%) [4]: 6.8% and 5/73(6.8) %
LVESVI and LVEDVI: Simultaneous reduction by more than or equal to 35 ml/m^2, n/N(%) [4]: 4.1% and 3/73(4.1) %
LVESVI and LVEDVI: Simultaneous reduction by more than or equal to 40 ml/m^2, n/N(%) [4]: 1.4% and 1/73(1.4) %
LVESVI and LVEDVI: Simultaneous reduction by more than or equal to 20 ml/m^2, n/N(%) (individual subject, Day 30 vs baseline, FAS, p-value 0.0048 vs placebo): 16.4% and 12/73(16.4) %
